Results as given in doi:10.1101/2024.08.21.608925.
Where two headings read alike, the source gives them in different places.

Assays:
[1] = biological target: Multiple peptide resistance factor (MprF) from Pseudomonas aeruginosa, wild type, CPD-His construct after IP6 cleavage (Pseudomonas aeruginosa); experiment: cryo-EM structure
[2] = biological target: Multiple peptide resistance factor (MprF) from Pseudomonas aeruginosa, wild type, CPD-His construct after IP6 cleavage (Pseudomonas aeruginosa); experiment: cryo-EM structure; remark: listed apart in the source

## Multiple peptide resistance factor (MprF) from Pseudomonas aeruginosa, wild type, CPD-His construct after IP6 cleavage (enzyme)
[1]
  stoichiometry N: 2
[2]
  stoichiometry N: 2
